Test results: publication PMC2391292

Target: human CD81 tetraspanin membrane receptor, CD81-GlyGly-rho-1D4 (human) (UniProt P60033)
Test: ELISA; plates coated with 100 ng rho-1D4 antibody; 100 ng purified CD81 captured by its C-terminal tag; HCV-E2 added at 0.4 to 20 nM for 2 h at room temperature in 25 mM Tris-HCl pH 7.5, 144 mM NaCl, 0.05% DM; detected with goat anti-E2 polyclonal antibody; nonspecific binding (no rho-1D4) subtracted; non-linear regression

Sequence of UniProt P60033 (P60033 whole entry): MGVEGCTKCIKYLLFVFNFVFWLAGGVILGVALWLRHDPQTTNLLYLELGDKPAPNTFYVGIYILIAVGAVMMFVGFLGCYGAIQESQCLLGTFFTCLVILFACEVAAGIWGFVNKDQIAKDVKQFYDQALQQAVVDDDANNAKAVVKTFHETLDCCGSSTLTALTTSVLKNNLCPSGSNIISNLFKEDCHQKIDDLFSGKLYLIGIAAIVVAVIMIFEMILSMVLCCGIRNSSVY

Recombinant HCV E2 envelope protein (from UniProt P27958 384-746) (ligand)
Kd: 3.8 nM
